Measured values: article PMC12888917, “Structure-based engineering of the midnolin-proteasome pathway for targeted protein degradation” (Protein & Cell, 2025)

Biological target: T1, full-length RPN1 (UniProt Q13200 1-908)
T1 construct: RPN1, full length, as isolated protein in the BLI assay
Test: BLI; full-length RPN1 and GST-tagged midnolin C-Helix (375–413)
Settings: both partners purified

T1 sequence (Q13200 whole entry): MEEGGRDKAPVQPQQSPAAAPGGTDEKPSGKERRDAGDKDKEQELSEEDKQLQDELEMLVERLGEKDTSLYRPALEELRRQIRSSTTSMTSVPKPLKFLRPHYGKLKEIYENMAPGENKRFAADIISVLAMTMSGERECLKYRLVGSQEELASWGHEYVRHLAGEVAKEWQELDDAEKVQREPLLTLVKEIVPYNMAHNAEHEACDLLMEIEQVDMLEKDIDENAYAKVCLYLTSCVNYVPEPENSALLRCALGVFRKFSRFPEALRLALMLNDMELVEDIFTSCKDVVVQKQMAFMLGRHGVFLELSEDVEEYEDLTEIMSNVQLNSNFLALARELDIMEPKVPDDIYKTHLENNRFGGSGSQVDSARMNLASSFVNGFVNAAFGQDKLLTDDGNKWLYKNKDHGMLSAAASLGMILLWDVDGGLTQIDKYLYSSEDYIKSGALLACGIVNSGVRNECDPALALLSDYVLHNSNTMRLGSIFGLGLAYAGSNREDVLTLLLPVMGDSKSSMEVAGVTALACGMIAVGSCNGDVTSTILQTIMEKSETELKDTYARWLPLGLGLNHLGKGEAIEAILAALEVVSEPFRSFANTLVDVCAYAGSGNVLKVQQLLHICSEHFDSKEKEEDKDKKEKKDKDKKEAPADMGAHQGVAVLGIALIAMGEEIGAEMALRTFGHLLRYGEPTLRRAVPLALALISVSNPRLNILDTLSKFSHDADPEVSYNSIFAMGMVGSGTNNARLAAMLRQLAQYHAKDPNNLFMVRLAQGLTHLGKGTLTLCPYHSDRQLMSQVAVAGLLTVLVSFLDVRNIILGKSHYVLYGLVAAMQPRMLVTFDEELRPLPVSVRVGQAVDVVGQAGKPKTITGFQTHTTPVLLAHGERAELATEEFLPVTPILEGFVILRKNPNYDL

- Kd: ~88.5 nM
Binder: PPGDRLRQTENRATRCKVERLQLLLQQKRLRRKARRDAR (domain or fragment, human, UniProt Q504T8 375-413, looked up, also called MIDN C-Helix) [GST-tagged midnolin C-Helix (375–413)]
